The data set has as its target Staphylococcal enterotoxin A (SEA) (UniProt P0A0L2 25-257). The data set can be described thus: […], Tris-HCl pH 7.4, 2.7 mM KCl, 1 mM CaCl2, 0.5 mM MgCl2; 30 min at 25 °C in 100 µL, […]. The following applies: protein: commercial; tags: biotinylated, immobilized on streptavidin magnetic beads.

Sequence of Staphylococcal enterotoxin A (SEA) (P0A0L2 25-257): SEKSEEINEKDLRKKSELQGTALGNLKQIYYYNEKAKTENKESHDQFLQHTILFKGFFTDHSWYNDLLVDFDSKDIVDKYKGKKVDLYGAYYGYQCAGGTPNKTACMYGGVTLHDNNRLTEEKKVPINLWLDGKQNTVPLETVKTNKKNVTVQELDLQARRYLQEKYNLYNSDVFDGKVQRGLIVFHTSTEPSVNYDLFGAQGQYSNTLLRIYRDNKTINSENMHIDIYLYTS

B1: Apt4 (Aptamer_423283) (ssDNA)
DNA: AGGCCAACTGGATAGCGAATGTTAGTGGACTCGGTTTGGACGTTCTCTCTTCTCGAATGCGAATTCAGCACTACCTTTTGGCAAACGCTAATAAGGG
On to B1, for which the binding result was “binds”.

B2: Apt5 (Aptamer_253457) (ssDNA)
DNA: AGGCCAACTGGATAGCGAATTTGCAATCAGCGTGGGTGGGTTTCTTTTGCGTGGTGTGTCGAATTCAGCACTACCTTTTGGCAAACGCTAATAAGGG
The Kd is a measure of binding affinity in units of concentration. Read a high Kd as a looser complex. The molecule B2 displayed a Kd of 13.4 ± 1.86 nM.

B3: Apt1 (Aptamer_301794) (ssDNA)
DNA: AGGCCAACTGGATAGCGAATAGAACTCTGCCGTGGGGTGCAGTTTTAATTGTACGTTCTCGAATTCAGCACTACCTTTTGGCAAACGCTAATAAGGG
In the case of B3, the binding result is “binds”.

B4: Apt2 (Aptamer_207452) (ssDNA)
DNA: AGGCCAACTGGATAGCGAATGTGGCAGTCGGTTTTGACTTGCGCTCTTGCATCATTATTCGAATTCAGCACTACCTTTTGGCAAACGCTAATAAGGG
Turning to B4, the binding result is “binds”.

The values above are taken from publication PMC11102521.
